We go through one molecule from patent publication US7211420B1, “Process for oxidizing terpenes” (ISIS Innovation Limited, priority 1998, dated 2007).

Holding throughout (assay type): biochemical
A short description of series [1]: Oxidation of L-limonene by P450cam mutants, product proportions by GC. Conditions: substrate L-Limonene. The procedure:
(§1) For simple screening the substrate can be added to culture and the incubation continued. However, due to impurities from the culture media the cells were generally washed twice with 0.5 vol. of buffer P, (KH2PO4 6.4 g, K2HPO4.3H2O 25.8 g, H2O to 4 liters, pH 7.4) and resuspended in 0.25 vol. oxygen saturated buffer P containing 24 mM glucose. Substrate was added to 1 mM and the incubation continued at 30° C. The reaction was allowed to run for 24 hours with periodic additions of substrate and glucose.
(§2) The reaction was analysed by extracting 1 ml of the incubation mixture with 250 μl of ethylacetate. After centrifuging in a microcentrifuge at 13,000 g for 2 minutes, 2 μl of the organic extract was injected onto a 0.25 mm×30 m DB-1 gas chromatography column in a Fisons GC 8000 series gas chromatograph. The samples were carried through the column using helium carrier gas and the compounds present were detected using a flame ionisation detector.

A short description of series [2]: Oxidation of α-pinene by P450cam mutants, product proportions by GC. The conditions noted are these: substrate α-Pinene. How it is done:
as §1, §2

Series [3] can be described thus: Oxidation of valencene by P450cam mutants, product proportions by GC. Conditions: substrate Valencene. How it is done: as §1, §2
[4] abbreviates: single oxygen insertion products only, 30 m DB-1 GC column.

B1: Wild-type: Wild-type P450cam haem monooxygenase from Pseudomonas putida, sequence in Table 7 (protein, UniProt P00183 2-415, looked up)
Camphor 5-monooxygenase: TTETIQSNANLAPLPPHVPEHLVFDFDMYNPSNLSAGVQEAWAVLQESNVPDLVWTRCNGGHWIATRGQLIREAYEDYRHFSSECPFIPREAGEAYDFIPTSMDPPEQRQFRALANQVVGMPVVDKLENRIQELACSLIESLRPQGQCNFTEDYAEPFPIRIFMLLAGLPEEDIPHLKYLTDQMTRPDGSMTFAEAKEALYDYLIPIIEQRRQKPGTDAISIVANGQVNGRPITSDEAKRMCGLLLVGGLDTVVNFLSFSMEFLAKSPEHRQELIERPERIPAACEELLRRFSLVADGRILTSDYEFHGVQLKKGDQILLPQMLSGLDERENACPMHVDFSRQKVSHTTFGHGSHLCLGQHLARREIIVTLKEWLTRIPDFSIAPGAQIQHKSGIVSGVQALPLVWDPATTKAV
As for B1, in series [1], the Comments entry is “Very small quantities”. For the same molecule, in series [1] (setting [4]), the “Approximate proportion of Product at 6.10–6.20 min” value was 30% and the “Approximate proportion of product Isopiperitenol (6.60–6.70 min)” value worked out at 70%. In series [2], the “Approximate proportion of product Pinene oxide” value is reported as 10%, the “Approximate proportion of product Verbenol” value is given as 30%, the “Approximate proportion of product Verbenone” value was found to be 10% and the “Remaining other products (Comments)” value is on record as “Remaining 50% other products”. Also, the Comments entry in series [3] was “Many small peaks”.
